The values that follow come from PMC6168863.

The experiment deals with SsaL-3Flag (Salmonella enterica serovar Typhimurium (strain 12023)). Description: co-IP; Bacteria grown 6 h in MgM-MES at pH 5.0; lysate in PBS, 1 mM PMSF, 0.5% Triton X-100; SsaL-3Flag precipitated with anti-Flag M2 affinity agarose for 3 h at 4°C and eluted with 3Flag peptide; SsaV detected with anti-His antibody. Strains: wt background, ssaV^V632D, ΔssaP (with or without pssaP), and ΔssaU expressing SsaU^N262A.

SsaV-6×His, sequence (P74856 whole entry): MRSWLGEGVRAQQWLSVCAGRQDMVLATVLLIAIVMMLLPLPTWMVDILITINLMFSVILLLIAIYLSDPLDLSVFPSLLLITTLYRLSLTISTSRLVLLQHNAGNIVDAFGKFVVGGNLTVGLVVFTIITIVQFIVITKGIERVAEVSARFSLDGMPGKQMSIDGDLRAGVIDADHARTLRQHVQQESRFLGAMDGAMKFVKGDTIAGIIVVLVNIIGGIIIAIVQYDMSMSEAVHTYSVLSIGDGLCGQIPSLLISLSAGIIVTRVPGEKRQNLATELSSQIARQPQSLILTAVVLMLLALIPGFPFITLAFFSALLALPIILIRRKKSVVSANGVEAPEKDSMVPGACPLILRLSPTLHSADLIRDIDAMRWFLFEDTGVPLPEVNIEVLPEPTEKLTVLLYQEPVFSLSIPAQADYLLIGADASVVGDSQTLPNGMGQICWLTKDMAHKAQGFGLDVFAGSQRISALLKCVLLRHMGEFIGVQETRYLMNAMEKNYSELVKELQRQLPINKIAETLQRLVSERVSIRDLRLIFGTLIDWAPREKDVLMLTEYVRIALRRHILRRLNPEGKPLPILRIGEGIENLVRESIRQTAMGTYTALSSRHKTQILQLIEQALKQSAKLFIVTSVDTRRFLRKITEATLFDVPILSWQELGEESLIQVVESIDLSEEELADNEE

As to “SsaV-6×His (from UniProt P74856 1-681) (natural protein)”, the percent decrease of SsaV-6×His co-immunoprecipitated with SsaL-3Flag in the absence of SsaP (ΔssaP) was found to be 43.6% and the percent decrease of SsaV-6×His co-immunoprecipitated with SsaL-3Flag in the absence of normally cleaved SsaU (ΔssaU expressing SsaU^N262A) turned out to be 46.2%.
